{"source": "paper PMC11499264", "about": "“RNA m5C oxidation by TET2 regulates chromatin state and leukaemogenesis”", "biological_target": "T1, MBD6 MBD domain-MBP-His (Homo sapiens, UniProt Q96DN6 1-100)", "T1 sequence": "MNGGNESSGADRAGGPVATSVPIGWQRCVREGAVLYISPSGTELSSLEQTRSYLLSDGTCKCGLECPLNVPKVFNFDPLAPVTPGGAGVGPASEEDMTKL", "assay": "EMSA; 0-100 uM protein; preferred over C and hm5C probes; 100 nM FAM probe, 20 mM HEPES pH 7.5, 40 mM KCl, 10 mM MgCl2, 0.1% Triton X-100, 10% glycerol, 1x RNaseOUT, on ice 30 min; 10% TBE gel, 0.5x TBE, 4 C", "conditions": "protein: recombinant; tags: C-terminal MBP-6xHis; label: 5' 6-FAM; single strand", "data": [{"binder": "TATGACCTGCGGTATGACCTGCGGTATGACCTGCGG (ssDNA, 5-methyl-dC at positions 7, 19, 31)", "note": "[p1-m5C (ss)]", "values": [{"measurement": "binding result", "value": "binds"}]}]}
